According to paper PMC12560621, “β-Branching in the biosynthesis of bongkrekic acid: a complex affair” (RSC Advances, 2025):

Assays:
[1] = biological target: BonH (Burkholderia gladioli pv. cocovenenans); assay: SEC; analytical size exclusion chromatography of the purified protein in solution; conditions in the supplementary information
[2] = biological target: BonA_ACP1a (Burkholderia gladioli pv. cocovenenans)
[3] = biological target: BonA_ACP2a (Burkholderia gladioli pv. cocovenenans)
[4] = biological target: the molecule itself; assay: SEC; analytical size exclusion chromatography of the purified protein in solution; conditions in the supplementary information

For BonH (enzyme), the stoichiometry N [1] was 3 and the BonH-catalysed conversion of HMG-BonA ACP1a to the MG-ACP product, by ESMS [2] was 15%.

Work on BonI (enzyme) yielded a BonI-catalysed decarboxylation of MG-BonA ACP2a (made by BonH from HMG-BonA ACP2a) to endo-β-methyl-BonA ACP2a, by ESMS and Ppant ejection [3] of 50% and a BonI-catalysed conversion (with BonH) of HMG-BonA ACP1a to the endo-β-methyl-ACP product, by ESMS [2] of 15%.

B1: BonI (enzyme)
chain: MSRPAHFHGSATEMSERVVHLAELEPGIVRITLEDRTHKNAFSDRLLNGIVEAFAEVAANPSWKAVILTGYDTYFCTGGTQDMLLKLSKGEGRFTDFPIYNLPLTCEIPVIAAMQGHAVGGGLALGLFADFVVLSRESVYTANFMKYGFTPGFGSTLVMREKLGLPLAQALLMTAANYRGDELARHGIAFPVLPRAEVAAHALDIARQLADKPRHSLVTLKAHLNAPLRAMLPEVTAREVEMHERTFPHPEVQQRIRALFGS
B1 was tested, and the “stoichiometry N” value [4] was 3.
